Experimental data taken from patent US20130011378A1, “Stable formulations of a hyaluronan-degrading enzyme” (priority 2011, published 2013).

Key:
[1] = Appearance (visual analysis, illuminator method); assay type: physicochemical
Description: Appearance of the insulin/rHuPH20 formulations was determined by qualitative visual analysis of the insulin/rHuPH20 solution in a type I glass vial. The evaluation of the coloration and clarity of the solution was determined by comparison to that of USP (or equivalent) sterile water for irrigation (SWFI). The aqueous solution was determined to be clear if its clarity was the same as that of the SWFI. The aqueous solution was determined to be colorless if it had the appearance of the SWFI. Vials were tested at room temperature and care was taken not to cause unnecessary turbulence and/or air bubbles in the solutions while swirling and/or inverting. If necessary, vials were wiped with non-shedding or lint-free wipes and 70% ethanol prior to testing. The procedure was as follows: A directional light source with a 150 W or greater lamp was turned on. The samples were prepared in a hood. Samples to be tested were gently inverted to ensure homogeneity prior to transferring >0.5 mL using aseptic technique to a Type 1 glass vial for testing. A SWFI sample was prepared in the same way. […] Color, clarity and the presence and extent of any visible particles and/or foreign matter were recorded. […]
In this method, the degree of clarity and coloration of liquids were evaluated to ensure (visually) product quality against the applicable appearance specifications. […]

[2] = RP-HPLC: insulin percent purity; assay type: physicochemical; details: for Percent of insulin main peak: 2-8° C.
Description: For insulin, 20 μL was injected for each HPLC run.
The data were processed using Design-Expert® 7.0 (StatEase) and the “historical data” feature. Insulin percent purity was expressed as the percent of main insulin versus all insulin species.

regular insulin: mature human insulin, SEQ ID NOS: 103 and 104
time tested without precipitates ([1]; NaCl 80 mM or less, pH 7.6): greater than 15 months
time to form precipitates ([1]; NaCl greater than 80 mM, pH 7.0): ≤ 1 week
Percent of insulin main peak ([2]; 50 mM NaCl, pH 7.0, 0 months): 97.64%
Percent of insulin main peak ([2]; 50 mM NaCl, pH 7.0, 0.25 months): 97.59%
Percent of insulin main peak ([2]; 50 mM NaCl, pH 7.0, 0.5 months): 97.50%
Percent of insulin main peak ([2]; 50 mM NaCl, pH 7.0, 1 month): 97.44%
Percent of insulin main peak ([2]; 50 mM NaCl, pH 7.0, 3 months): 97.24%
Percent of insulin main peak ([2]; 50 mM NaCl, pH 7.0, 5 months): 97.73%
Percent of insulin main peak ([2]; 50 mM NaCl, pH 7.0, 9 months): 97.20%
Percent of insulin main peak ([2]; 50 mM NaCl, pH 7.2, 0 months): 97.64%
Percent of insulin main peak ([2]; 50 mM NaCl, pH 7.2, 0.25 months): 97.59%
Percent of insulin main peak ([2]; 50 mM NaCl, pH 7.2, 0.5 months): 97.56%
Percent of insulin main peak ([2]; 50 mM NaCl, pH 7.2, 1 month): 97.46%
Percent of insulin main peak ([2]; 50 mM NaCl, pH 7.2, 3 months): 97.47%
Percent of insulin main peak ([2]; 50 mM NaCl, pH 7.2, 5 months): 97.75%
Percent of insulin main peak ([2]; 50 mM NaCl, pH 7.2, 9 months): 97.27%
Percent of insulin main peak ([2]; 50 mM NaCl, pH 7.4, 0 months): 97.58%
Percent of insulin main peak ([2]; 50 mM NaCl, pH 7.4, 0.25 months): 97.54%
Percent of insulin main peak ([2]; 50 mM NaCl, pH 7.4, 0.5 months): 97.48%
Percent of insulin main peak ([2]; 50 mM NaCl, pH 7.4, 1 month): 97.47%
Percent of insulin main peak ([2]; 50 mM NaCl, pH 7.4, 3 months): 97.45%
Percent of insulin main peak ([2]; 50 mM NaCl, pH 7.4, 5 months): 97.74%
Percent of insulin main peak ([2]; 50 mM NaCl, pH 7.4, 9 months): 97.27%
Percent of insulin main peak ([2]; 50 mM NaCl, pH 7.6, 0 months): 97.65%
Percent of insulin main peak ([2]; 50 mM NaCl, pH 7.6, 0.25 months): 97.58%
Percent of insulin main peak ([2]; 50 mM NaCl, pH 7.6, 0.5 months): 97.33%
Percent of insulin main peak ([2]; 50 mM NaCl, pH 7.6, 1 month): 97.44%
Percent of insulin main peak ([2]; 50 mM NaCl, pH 7.6, 3 months): 97.35%
Percent of insulin main peak ([2]; 50 mM NaCl, pH 7.6, 5 months): 97.66%
Percent of insulin main peak ([2]; 50 mM NaCl, pH 7.6, 9 months): 97.34%
Percent of insulin main peak ([2]; 80 mM NaCl, pH 7.0, 0 months): 97.65%
Percent of insulin main peak ([2]; 80 mM NaCl, pH 7.0, 0.25 months): 97.50%
Percent of insulin main peak ([2]; 80 mM NaCl, pH 7.0, 0.5 months): 97.30%
Percent of insulin main peak ([2]; 80 mM NaCl, pH 7.0, 1 month): 97.20%
Percent of insulin main peak ([2]; 80 mM NaCl, pH 7.0, 5 months): 97.81%
Percent of insulin main peak ([2]; 80 mM NaCl, pH 7.0, 9 months): 96.18%
Percent of insulin main peak ([2]; 80 mM NaCl, pH 7.2, 0 months): 97.57%
Percent of insulin main peak ([2]; 80 mM NaCl, pH 7.2, 0.25 months): 97.59%
Percent of insulin main peak ([2]; 80 mM NaCl, pH 7.2, 0.5 months): 97.30%
Percent of insulin main peak ([2]; 80 mM NaCl, pH 7.2, 1 month): 97.45%
Percent of insulin main peak ([2]; 80 mM NaCl, pH 7.2, 3 months): 97.34%
Percent of insulin main peak ([2]; 80 mM NaCl, pH 7.2, 5 months): 97.64%
Percent of insulin main peak ([2]; 80 mM NaCl, pH 7.4, 0 months): 97.56%
Percent of insulin main peak ([2]; 80 mM NaCl, pH 7.4, 0.25 months): 97.61%
Percent of insulin main peak ([2]; 80 mM NaCl, pH 7.4, 0.5 months): 97.51%
Percent of insulin main peak ([2]; 80 mM NaCl, pH 7.4, 1 month): 97.43%
Percent of insulin main peak ([2]; 80 mM NaCl, pH 7.4, 3 months): 97.43%
Percent of insulin main peak ([2]; 80 mM NaCl, pH 7.4, 5 months): 97.75%
Percent of insulin main peak ([2]; 80 mM NaCl, pH 7.4, 9 months): 97.29%
Percent of insulin main peak ([2]; 80 mM NaCl, pH 7.6, 0 months): 97.63%
Percent of insulin main peak ([2]; 80 mM NaCl, pH 7.6, 0.25 months): 97.62%
Percent of insulin main peak ([2]; 80 mM NaCl, pH 7.6, 0.5 months): 97.52%
Percent of insulin main peak ([2]; 80 mM NaCl, pH 7.6, 1 month): 97.37%
Percent of insulin main peak ([2]; 80 mM NaCl, pH 7.6, 3 months): 97.64%
Percent of insulin main peak ([2]; 80 mM NaCl, pH 7.6, 5 months): 97.67%
Percent of insulin main peak ([2]; 80 mM NaCl, pH 7.6, 9 months): 97.31%
Percent of insulin main peak ([2]; 110 mM NaCl, pH 7.0, 0 months): 97.64%
Percent of insulin main peak ([2]; 110 mM NaCl, pH 7.0, 0.25 months): 97.31%
Percent of insulin main peak ([2]; 110 mM NaCl, pH 7.0, 0.5 months): 97.57%
Percent of insulin main peak ([2]; 110 mM NaCl, pH 7.0, 1 month): 96.64%
Percent of insulin main peak ([2]; 110 mM NaCl, pH 7.0, 3 months): 96.10%
Percent of insulin main peak ([2]; 110 mM NaCl, pH 7.0, 5 months): 97.79%
Percent of insulin main peak ([2]; 110 mM NaCl, pH 7.2, 0 months): 97.62%
Percent of insulin main peak ([2]; 110 mM NaCl, pH 7.2, 0.25 months): 97.46%
Percent of insulin main peak ([2]; 110 mM NaCl, pH 7.2, 0.5 months): 97.35%
Percent of insulin main peak ([2]; 110 mM NaCl, pH 7.2, 3 months): 97.49%
Percent of insulin main peak ([2]; 110 mM NaCl, pH 7.2, 5 months): 97.61%
Percent of insulin main peak ([2]; 110 mM NaCl, pH 7.2, 9 months): 95.91%
Percent of insulin main peak ([2]; 110 mM NaCl, pH 7.4, 0 months): 97.65%
Percent of insulin main peak ([2]; 110 mM NaCl, pH 7.4, 0.25 months): 97.58%
Percent of insulin main peak ([2]; 110 mM NaCl, pH 7.4, 0.5 months): 97.39%
Percent of insulin main peak ([2]; 110 mM NaCl, pH 7.4, 1 month): 97.36%
Percent of insulin main peak ([2]; 110 mM NaCl, pH 7.4, 3 months): 97.36%
Percent of insulin main peak ([2]; 110 mM NaCl, pH 7.4, 5 months): 97.79%
Percent of insulin main peak ([2]; 110 mM NaCl, pH 7.4, 9 months): 96.91%
Percent of insulin main peak ([2]; 110 mM NaCl, pH 7.6, 0 months): 97.58%
Percent of insulin main peak ([2]; 110 mM NaCl, pH 7.6, 0.25 months): 97.57%
Percent of insulin main peak ([2]; 110 mM NaCl, pH 7.6, 0.5 months): 97.60%
Percent of insulin main peak ([2]; 110 mM NaCl, pH 7.6, 1 month): 97.52%
Percent of insulin main peak ([2]; 110 mM NaCl, pH 7.6, 3 months): 97.42%
Percent of insulin main peak ([2]; 110 mM NaCl, pH 7.6, 5 months): 97.61%
Percent of insulin main peak ([2]; 110 mM NaCl, pH 7.6, 9 months): 97.31%
Percent of insulin main peak ([2]; 140 mM NaCl, pH 7.0, 0 months): 97.65%
Percent of insulin main peak ([2]; 140 mM NaCl, pH 7.0, 0.25 months): 97.15%
Percent of insulin main peak ([2]; 140 mM NaCl, pH 7.0, 1 month): 96.39%
Percent of insulin main peak ([2]; 140 mM NaCl, pH 7.0, 3 months): 96.16%
Percent of insulin main peak ([2]; 140 mM NaCl, pH 7.0, 9 months): 95.17%
Percent of insulin main peak ([2]; 140 mM NaCl, pH 7.2, 0 months): 97.56%
Percent of insulin main peak ([2]; 140 mM NaCl, pH 7.2, 0.25 months): 97.37%
Percent of insulin main peak ([2]; 140 mM NaCl, pH 7.2, 1 month): 96.62%
Percent of insulin main peak ([2]; 140 mM NaCl, pH 7.2, 3 months): 96.60%
Percent of insulin main peak ([2]; 140 mM NaCl, pH 7.2, 9 months): 95.49%
Percent of insulin main peak ([2]; 140 mM NaCl, pH 7.4, 0 months): 97.64%
Percent of insulin main peak ([2]; 140 mM NaCl, pH 7.4, 0.25 months): 97.57%
Percent of insulin main peak ([2]; 140 mM NaCl, pH 7.4, 0.5 months): 97.33%
Percent of insulin main peak ([2]; 140 mM NaCl, pH 7.4, 1 month): 97.23%
Percent of insulin main peak ([2]; 140 mM NaCl, pH 7.4, 3 months): 97.38%
Percent of insulin main peak ([2]; 140 mM NaCl, pH 7.4, 5 months): 97.73%
Percent of insulin main peak ([2]; 140 mM NaCl, pH 7.4, 9 months): 96.10%
Percent of insulin main peak ([2]; 140 mM NaCl, pH 7.6, 0 months): 97.64%
Percent of insulin main peak ([2]; 140 mM NaCl, pH 7.6, 0.25 months): 97.61%
Percent of insulin main peak ([2]; 140 mM NaCl, pH 7.6, 0.5 months): 97.41%
Percent of insulin main peak ([2]; 140 mM NaCl, pH 7.6, 1 month): 97.51%
Percent of insulin main peak ([2]; 140 mM NaCl, pH 7.6, 3 months): 97.35%
Percent of insulin main peak ([2]; 140 mM NaCl, pH 7.6, 5 months): 97.56%
Percent of insulin main peak ([2]; 140 mM NaCl, pH 7.6, 9 months): 97.07%
insulin main peak percentage ([2]; long term storage at 2-8° C., […] m-cresol, 0.2% phenol): about 97%
